Measurements from paper PMC7705670, “Structural and functional characterization of M. tuberculosis sedoheptulose- 7-phosphate isomerase, a critical enzyme involved in lipopolysaccharide biosynthetic pathway” (Scientific Reports, 2020).

How the values were obtained:
Test in all cases: SEC
[1] = biological target: MtbGmhA T122A mutant (M. tuberculosis) (UniProt P9WGG1)
[2] = biological target: MtbGmhA S123A mutant (M. tuberculosis) (UniProt P9WGG1)
[3] = biological target: MtbGmhA Q173A mutant (M. tuberculosis) (UniProt P9WGG1)
[4] = biological target: MtbGmhA S126A mutant (M. tuberculosis) (UniProt P9WGG1)
[5] = biological target: the molecule itself

Molecule “MtbGmhA T122A mutant (from UniProt P9WGG1 1-196) (enzyme)” has a stoichiometry N [1] of 4.

For “MtbGmhA S123A mutant (from UniProt P9WGG1 1-196) (enzyme)”, the stoichiometry N [2] was 4.

With “MtbGmhA Q173A mutant (from UniProt P9WGG1 1-196) (enzyme)” the stoichiometry N [3] was 4.

For “MtbGmhA S126A mutant (from UniProt P9WGG1 1-196) (enzyme)”, the stoichiometry N [4] was 4.

B1: MtbGmhA N53G mutant (enzyme)
chain: MCTARTAEEIFVETIAVKTRILNDRVLLEAARAIGDRLIAGYRAGARVFMCGGGGSAADAQHFAAELTGHLIFDRPPLGAEALHANSSHLTAVANDYDYDTVFARALEGSARPGDTLFAISTSGNSMSVLRAAKTARELGVTVVAMTGESGGQLAEFADFLINVPSRDTGRIQESHIVFIHAISEHVEHALFAPRQ
notes: not shown: His6, N-terminal, kept
B1 was tested, and the “stoichiometry N” value [5] was 4.

B2: MtbGmhA S121G mutant (enzyme)
chain: MCTARTAEEIFVETIAVKTRILNDRVLLEAARAIGDRLIAGYRAGARVFMCGNGGSAADAQHFAAELTGHLIFDRPPLGAEALHANSSHLTAVANDYDYDTVFARALEGSARPGDTLFAIGTSGNSMSVLRAAKTARELGVTVVAMTGESGGQLAEFADFLINVPSRDTGRIQESHIVFIHAISEHVEHALFAPRQ
notes: as for B1
For B2, the “stoichiometry N” value [5] was 4.
